According to article PMC11187563, “The importance of tyrosines in multimers of cyclic RGD nonapeptides: towards αvβ6-integrin targeted radiotherapeutics” (RSC Medicinal Chemistry, 2024):
Where two headings read alike, the source gives them in different places.

Assays:
[1] = Ex vivo biodistribution of 177Lu-labeled peptide tetramers in H2009 xenografted SCID mice; conditions: CB17 SCID, mouse, iv, total radioactivity, H2009 bearing SCID mice; for tissue uptake at 1.5 h / tissue to tissue ratio at 1.5 h: 90 pmol, 90 min p.i.; for tissue uptake at 72 h / tissue to tissue ratio at 72 h: 92 pmol, 3 d p.i.
Description: (§1) The biodistribution of the ^177Lu-labeled peptide conjugates was investigated in severe combined immunodeficiency (SCID) mice bearing subcutaneous xenografts of the αvβ6-integrin expressing human lung adenocarcinoma cell line H2009 on their right shoulders. Two representative time points after i.v. administration (p.i.) were evaluated.
(§2) Analytical HPLC was performed on a Shimadzu (Kyoto, Japan) Prominence HPLC system equipped with either a Dr. Maisch ReproSil Pur C18 AQ 150 × 4.6 mm, 5 μm, 120 Å (AC1) or a Phenomenex Kinetex C18 150 × 4.6 mm 5 μm column (AC2). Semipreparative HPLC was performed on a Shimadzu HPLC system equipped with either a Dr. Maisch ReproSil Pur C18 AQ 250 × 10 mm, 5 μm, 120 Å column with 5 mL min^−1 flow (PC1) or a Dr. Maisch ReproSil Pur C18 150 × 30 mm, 5 μm, 120 Å column with 20 mL min^−1 flow (PC2). Solvents for both systems were water (A) and acetonitrile (B) each supplemented with 0.1% (vol) trifluoroacetic acid (TFA). ESI-MS spectra (positive mode) were recorded on a Shimadzu LC-MS 2020 single quadrupol mass spectrometer. Solvents for MS applications were water (A) and acetonitrile (B) each supplemented with 0.1% (vol) formic acid. The other experimental procedures (determination of log D7.4, cultivation of H2009 human lung adenocarcinoma cells, generation of tumor xenografts in CB17 SCID mice, and biodistribution) were performed as described before.[28] All animal experiments have been carried out according to applicable law and institutional guidelines of Technical University of Munich, and were approved by the responsible local authority (Regierung von Oberbayern). The H2009 cells were regularly authenticated and tested for mycoplasma contamination. DOTPI-tetraazide,[43]FF (previously termed AvB6),[29]FY,[34] and YY (also referred to as Tyr2-alkyne)[36] were synthesized as described previously.

[2] = test system: αvβ6-integrin expressing human lung adenocarcinoma cell line H2009 xenografts; assay: as above; conditions: H2009 bearing SCID mice
Description: as §1, §2

[3] = H2009 tumor, read-out: Tumor H2009 %IA/g
[4] = adrenals, read-out: Adrenals %IA/g
[5] = heart (myocard), read-out: Heart (myocard) %IA/g
[6] = kidneys, read-out: Kidneys %IA/g
[7] = large intestine (empty), read-out: Large intestine (empty) %IA/g
[8] = pancreas, read-out: Pancreas %IA/g
[9] = small intestine (empty), read-out: Small intestine (empty) %IA/g
[10] = stomach (empty), read-out: Stomach (empty) %IA/g
[11] = tumor/blood, read-out: tumor/organ ratio, Blood
[12] = tumor/heart (myocard), read-out: tumor/organ ratio, Heart (myocard)
[13] = tumor/liver, read-out: tumor/organ ratio, Liver
[14] = tumor/lung, read-out: tumor/organ ratio, Lung
[15] = tumor/pancreas, read-out: tumor/organ ratio, Pancreas
[16] = tumor/spleen, read-out: tumor/organ ratio, Spleen

Compound: CC(C)C[C@@H]1NC(=O)[C@H](CC(=O)O)NC(=O)CNC(=O)[C@H](CCCNC(=N)N)NC(=O)[C@H](Cc2ccccc2)NC(=O)[C@H](CCCCNC(=O)CCc2cn(CCCNC(=O)CCP(=O)(O)CN3CCN(CP(=O)(O)CCC(=O)NCCCn4cc(CCC(=O)NCCCC[C@H]5C(=O)N[C@@H](Cc6ccccc6)C(=O)N[C@@H](CCCNC(=N)N)C(=O)NCC(=O)N[C@@H](CC(=O)O)C(=O)N[C@@H](CC(C)C)C(=O)N[C@@H](C)C(=O)N[C@@H](Cc6ccccc6)C(=O)N6CCC[C@@H]6C(=O)N5C)nn4)CCN(CP(=O)(O)CCC(=O)NCCCn4cc(CCC(=O)NCCCC[C@H]5C(=O)N[C@@H](Cc6ccccc6)C(=O)N[C@@H](CCCNC(=N)N)C(=O)NCC(=O)N[C@@H](CC(=O)O)C(=O)N[C@@H](CC(C)C)C(=O)N[C@@H](C)C(=O)N[C@@H](Cc6ccccc6)C(=O)N6CCC[C@@H]6C(=O)N5C)nn4)CCN(CP(=O)(O)CCC(=O)NCCCn4cc(CCC(=O)NCCCC[C@H]5C(=O)N[C@@H](Cc6ccccc6)C(=O)N[C@@H](CCCNC(=N)N)C(=O)NCC(=O)N[C@@H](CC(=O)O)C(=O)N[C@@H](CC(C)C)C(=O)N[C@@H](C)C(=O)N[C@@H](Cc6ccccc6)C(=O)N6CCC[C@@H]6C(=O)N5C)nn4)CC3)nn2)N(C)C(=O)[C@H]2CCCN2C(=O)[C@H](Cc2ccccc2)NC(=O)[C@H](C)NC1=O [Compound 177Lu-Y0, metal not drawn]
- tissue uptake at 1.5 h [1, 3]: 3.23 %ID/g
- tissue uptake at 72 h [1, 3]: 1.72 %ID/g
- tissue uptake at 1.5 h [1, 4]: 1.36 %ID/g
- tissue uptake at 72 h [1, 4]: 0.82 %ID/g
- tissue uptake at 1.5 h ([1]; blood, read-out: Blood %IA/g): 1.2 %ID/g
- tissue uptake at 72 h ([1]; blood, read-out: Blood %IA/g): 0.02 %ID/g
- tissue uptake at 1.5 h ([1]; bone, read-out: Bone %IA/g): 1.45 %ID/g
- tissue uptake at 72 h ([1]; bone, read-out: Bone %IA/g): 0.42 %ID/g
- tissue uptake at 1.5 h [1, 5]: 1.13 %ID/g
- tissue uptake at 72 h [1, 5]: 0.43 %ID/g
- tissue uptake at 1.5 h [1, 6]: 208 %ID/g
- tissue uptake at 72 h [1, 6]: 243 %ID/g
- tissue uptake at 1.5 h [1, 7]: 3 %ID/g
- tissue uptake at 72 h [1, 7]: 1.19 %ID/g
- tissue uptake at 1.5 h ([1]; liver, read-out: Liver %IA/g): 5.03 %ID/g
- tissue uptake at 72 h ([1]; liver, read-out: Liver %IA/g): 2.61 %ID/g
- tissue uptake at 1.5 h ([1]; lung, read-out: Lung %IA/g): 3.59 %ID/g
- tissue uptake at 72 h ([1]; lung, read-out: Lung %IA/g): 1.22 %ID/g
- tissue uptake at 1.5 h ([1]; muscle, read-out: Muscle %IA/g): 0.53 %ID/g
- tissue uptake at 72 h ([1]; muscle, read-out: Muscle %IA/g): 0.29 %ID/g
- tissue uptake at 1.5 h [1, 8]: 0.49 %ID/g
- tissue uptake at 72 h [1, 8]: 0.31 %ID/g
- tissue uptake at 1.5 h [1, 9]: 1.67 %ID/g
- tissue uptake at 72 h [1, 9]: 0.82 %ID/g
- tissue uptake at 1.5 h ([1]; spleen, read-out: Spleen %IA/g): 2.22 %ID/g
- tissue uptake at 72 h ([1]; spleen, read-out: Spleen %IA/g): 1.58 %ID/g
- tissue uptake at 1.5 h [1, 10]: 4.15 %ID/g
- tissue uptake at 72 h [1, 10]: 2.63 %ID/g
- tissue to tissue ratio at 72 h ([1]; tumor / adrenals, read-out: tumor/organ ratio, Adrenals): 2.1
- tissue to tissue ratio at 72 h ([1]; tumor / bone, read-out: tumor/organ ratio, Bone): 5
- tissue to tissue ratio at 72 h ([1]; tumor / large intestine (empty), read-out: tumor/organ ratio, Large intestine (empty)): 2.1
- tissue to tissue ratio at 72 h ([1]; tumor / muscle, read-out: tumor/organ ratio, Muscle): 8.2
- tissue to tissue ratio at 72 h ([1]; tumor / small intestine (empty), read-out: tumor/organ ratio, Small intestine (empty)): 2.2
- tissue to tissue ratio at 72 h ([1]; tumor / stomach (empty), read-out: tumor/organ ratio, Stomach (empty)): 0.8
- tissue to tissue ratio at 1.5 h ([1]; tumor/adrenals, read-out: tumor/organ ratio, Adrenals): 2.9
- tissue to tissue ratio at 1.5 h [1, 11]: 2.7
- tissue to tissue ratio at 72 h [1, 11]: 97.5
- tissue to tissue ratio at 1.5 h ([1]; tumor/bone, read-out: tumor/organ ratio, Bone): 2.4
- tissue to tissue ratio at 1.5 h [1, 12]: 3
- tissue to tissue ratio at 72 h [1, 12]: 4.3
- tissue to tissue ratio at 1.5 h ([1]; tumor/large intestine (empty), read-out: tumor/organ ratio, Large intestine (empty)): 1.1
- tissue to tissue ratio at 1.5 h [1, 13]: 0.7
- tissue to tissue ratio at 72 h [1, 13]: 0.7
- tissue to tissue ratio at 1.5 h [1, 14]: 0.9
- tissue to tissue ratio at 72 h [1, 14]: 1.5
- tissue to tissue ratio at 1.5 h ([1]; tumor/muscle, read-out: tumor/organ ratio, Muscle): 6
- tissue to tissue ratio at 1.5 h [1, 15]: 6.7
- tissue to tissue ratio at 72 h [1, 15]: 6.3
- tissue to tissue ratio at 1.5 h ([1]; tumor/small intestine (empty), read-out: tumor/organ ratio, Small intestine (empty)): 2
- tissue to tissue ratio at 1.5 h [1, 16]: 1.6
- tissue to tissue ratio at 72 h [1, 16]: 1.1
- tissue to tissue ratio at 1.5 h ([1]; tumor/stomach (empty), read-out: tumor/organ ratio, Stomach (empty)): 0.8
- tumor/organ ratio, Kidneys ([2]; 90 min p.i.): 0.0
- tumor/organ ratio, Kidneys ([2]; 3 d p.i.): 0.0
